In patent US20190202900A1 (INFLARX, published 2019):

Target: T1, human endogenous C5a (eC5a) generated in human zymosan-activated plasma (human, UniProt P01031 678-751)
T1 sequence: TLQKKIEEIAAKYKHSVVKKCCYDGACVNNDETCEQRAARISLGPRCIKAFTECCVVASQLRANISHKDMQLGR
Assay: cell-based or functional assay

B1: IFX-1 (antibody, IgG4, V domains shown)
VH: QVQLQQSGPQLVRPGTSVKISCKASGYSFTTFWMDWVKQRPGQGLEWIGRIDPSDSESRLDQRFKDRATLTVDKSSSTVYMQLSSPTSEDSAVYYCARGNDGYYGFAYWGQGTLVTVSS
VL: DIVLTQSPASLAVSLGQRATISCKASQSVDYDGDSYMKWYQQKPGQPPKLLIYAASNLQSGIPARFSGSGSGTDFTLNIHPVEEEDAATYYCQQSNEDPYTFGGGTKLEIK
In the case of B1, the “blocking of eC5a-induced CD11b up-regulation on human granulocytes (ZAP-CD11b assay), Ab:Ag ratios 1:1 and 2:1” value is reported as ≤ 98% and the “decrease of CD11b expression on human granulocytes (ZAP-CD11b assay, flow cytometry MFI), Ab:Ag molar ratio 0.5:1” value is reported as > 80%.
